Experimental data: the supplement of paper PMC7125110
± gives the standard error. Variants at the floor of the assay were thinned out.

B1: glmS ribozyme (parent)
chain: AUAAAAGCGCCAGAACUACAGAAAUGUAGUUGACGAGGAGGAGGUUUAUCGAAUUUUCGGCGGAUGCCUCCAAA

How the values were obtained:
Details in all cases: with glucosamine-6-phosphate
glucosamine-6-phosphate [1] = variants of: B1; test: self-cleavage kobs at 160 uM GlcN6P; higher = faster cleavage; RNA array
Method in brief: (§1)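 Glucosamine-6-phosphate (40 μM to 10 mM) in HEPES/KCl/Mg(OAc)2 buffer was flowed over sequenced MiSeq chips, and tiles were imaged over ~14 h. Barcoded ribozyme variants there had been transcribed in situ by E. coli RNA polymerase and were tracked through a hybridised Cy3 probe at 37 °C. One- or two-exponential decay fits to per-tile medians, normalised to baseline and to non-cleaving reference variants, gave kobs. kcat and KM came from weighted Michaelis–Menten fits across concentrations.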

glucosamine-6-phosphate [2] = variants of: B1; test: self-cleavage kobs at 640 uM GlcN6P; higher = faster cleavage; RNA array
Method in brief: as §1

glucosamine-6-phosphate [3] = variants of: B1; test: self-cleavage kobs at 2500 uM GlcN6P; higher = faster cleavage; RNA array
Method in brief: as §1

glucosamine-6-phosphate [4] = variants of: B1; test: self-cleavage kobs at 10000 uM GlcN6P; higher = faster cleavage; RNA array
Method in brief: as §1

| Variant | self-cleavage kobs at 160 uM GlcN6P (glucosamine-6-phosphate [1]) [s⁻¹] | self-cleavage kobs at 640 uM GlcN6P (glucosamine-6-phosphate [2]) [s⁻¹] | self-cleavage kobs at 2500 uM GlcN6P (glucosamine-6-phosphate [3]) [s⁻¹] | self-cleavage kobs at 10000 uM GlcN6P (glucosamine-6-phosphate [4]) [s⁻¹] |
| --- | --- | --- | --- | --- |
| G9U A12C G40A G41U G43U G63U | < 1e-05 |  |  |  |
| G7U G37C G40A | < 1e-05 | < 1e-05 |  |  |
| C8G C16U G35U C50G C70U | 0.000117 ± 2.9e-05 | 0.000187 ± 5e-05 | 8.04e-05 ± 1.8e-05 |  |
| G7C C8G | < 1e-05 | < 1e-05 | < 1e-05 | < 1e-05 |
| C11G A39C G40U | < 1e-05 | < 1e-05 | < 1e-05 |  |
| G9U U31A C71U | < 1e-05 | < 1e-05 | < 1e-05 |  |
| C11U A14G C70U | 0.00076 ± 0.00021 | 0.000656 ± 0.00014 | 0.00193 ± 0.0006 |  |
| C8A G40C G41C G63U | < 1e-05 | < 1e-05 |  |  |
| C10U U49G U56A | < 1e-05 |  |  |  |
| G9U C11U G38C | < 1e-05 | < 1e-05 | < 1e-05 |  |
| G7U C16U | < 1e-05 |  |  |  |
| C11U A14G A39G G60C | < 1e-05 | < 1e-05 |  |  |
| C10A C16G | < 1e-05 |  |  | < 1e-05 |
| C10G G32U U54G C68A | 5.61e-05 ± 2.2e-05 |  |  |  |
| C11G A12U G13U C58U C68G | 7.71e-05 ± 2.9e-05 | 0.000363 ± 0.00016 |  |  |
| C11U A15G G44U G60U | < 1e-05 | < 1e-05 | < 1e-05 |  |
| C10U A12G G63U | < 1e-05 |  | < 1e-05 |  |
| C11A A53C C67G | < 1e-05 | < 1e-05 |  |  |
| C8U A42G G63A | < 1e-05 | < 1e-05 | < 1e-05 |  |
| G9U A48U | < 1e-05 |  | < 1e-05 | < 1e-05 |
| C11U A14U A64C | < 1e-05 |  |  |  |
| C11U U46A U54G | < 1e-05 |  | 4.93e-05 ± 1.7e-05 |  |
| A12C A15G C50G U56G C67G | 0.000121 ± 2.8e-05 | 0.000141 ± 3.7e-05 | 0.000133 ± 3.1e-05 | 4.37e-05 ± 1.2e-05 |
| C11A A42G G63A | < 1e-05 | < 1e-05 |  |  |
| C8G G9U A12U C16G | < 1e-05 | < 1e-05 |  |  |

| Variant | self-cleavage kobs at 160 uM GlcN6P (glucosamine-6-phosphate [1]) [s⁻¹] | self-cleavage kobs at 640 uM GlcN6P (glucosamine-6-phosphate [2]) [s⁻¹] | self-cleavage kobs at 2500 uM GlcN6P (glucosamine-6-phosphate [3]) [s⁻¹] | self-cleavage kobs at 10000 uM GlcN6P (glucosamine-6-phosphate [4]) [s⁻¹] |
| --- | --- | --- | --- | --- |
| G9A G41A | < 1e-05 | < 1e-05 | < 1e-05 | < 1e-05 |
| G9U A15U A39U U69C | < 1e-05 | < 1e-05 |  |  |
| C10G U55A | < 1e-05 | < 1e-05 |  |  |
| G9U U56C G62C | < 1e-05 | < 1e-05 |  |  |
| C10A A12G A15G C61A | < 1e-05 |  |  |  |
| C11A A14C G35A C50G C71G | 0.000211 ± 3.9e-05 | 0.000433 ± 0.00014 | 0.000131 ± 4.3e-05 |  |
| G9C U56A | < 1e-05 | < 1e-05 | < 1e-05 |  |
| C8A G44C | < 1e-05 | < 1e-05 | < 1e-05 |  |
| G9U A12C C67U | < 1e-05 | < 1e-05 | < 1e-05 | < 1e-05 |
| G7U G35A G59C | < 1e-05 |  | < 1e-05 |  |
| C8A A42U U45G | < 1e-05 | < 1e-05 | < 1e-05 |  |
| C11U U47A | 9.6e-05 ± 3.1e-05 | 0.000187 ± 4.3e-05 | 0.0014 ± 0.00025 | 0.0016 ± 0.00047 |
| G7U C19U G38U | < 1e-05 |  | < 1e-05 |  |
| C8G C16A G35U | < 1e-05 |  | < 1e-05 |  |
| C11G A12G G13C A14G | < 1e-05 | < 1e-05 | < 1e-05 | < 1e-05 |
| G7U A12C G41A | < 1e-05 |  | < 1e-05 |  |
| C10G G13U A15C | < 1e-05 | < 1e-05 |  |  |
| C8U G32C G43C C70G | < 1e-05 |  |  |  |
| C10U G51U | < 1e-05 | < 1e-05 | < 1e-05 | < 1e-05 |
| C8U A12C A42U A53U C61A | < 1e-05 | < 1e-05 | < 1e-05 |  |
| G7U C61U | < 1e-05 | < 1e-05 |  | < 1e-05 |
| C11A C34U G35C | < 1e-05 |  | < 1e-05 |  |
| C10A G35C G51U | < 1e-05 | < 1e-05 | < 1e-05 |  |
| G9U C10U C67G | < 1e-05 | < 1e-05 | < 1e-05 |  |
| C11A A48C | < 1e-05 | < 1e-05 | < 1e-05 |  |
